Biological target: EGFR-NLuc (human EGF receptor fused to the N-terminal fragment of firefly luciferase) (human, UniProt P00533 25-1210)
Assay: split reporter

fold induction of reconstituted luciferase over control, 15 min after EGF: 2.5 fold over control
B1: Shc-CLuc (human p52Shc fused to the C-terminal fragment of firefly luciferase) (natural protein, UniProt P29353-2 1-473, looked up)
chain: MNKLSGGGGRRTRVEGGQLGGEEWTRHGSFVNKPTRGWLHPNDKVMGPGVSYLVRYMGCVEVLQSMRALDFNTRTQVTREAISLVCEAVPGAKGATRRRKPCSRPLSSILGRSNLKFAGMPITLTVSTSSLNLMAADCKQIIANHHMQSISFASGGDPDTAEYVAYVAKDPVNQRACHILECPEGLAQDVISTIGQAFELRFKQYLRNPPKLVTPHDRMAGFDGSAWDEEEEEPPDHQYYNDFPGKEPPLGGVVDMRLREGAAPGAARPTAPNAQTPSHLGATLPVGQPVGGDPEVRKQMPPPPPCPGRELFDDPSYVNVQNLDKARQAVGGAGPPNPAINGSAPRDLFDMKPFEDALRVPPPPQSVSMAEQLRGEPWFHGKLSRREAEALLQLNGDFLVRESTTTPGQYVLTGLQSGQPKHLLLVDPEGVVRTKDHRFESVSHLISYHMDNHLPIISAGSELCLQQPVERKL
